From article PMC7096168 come the findings set out here.

The target of data set [1] is T1, dCTCF zinc finger cluster (UniProt Q9VS55 294-614).
T1 sequence: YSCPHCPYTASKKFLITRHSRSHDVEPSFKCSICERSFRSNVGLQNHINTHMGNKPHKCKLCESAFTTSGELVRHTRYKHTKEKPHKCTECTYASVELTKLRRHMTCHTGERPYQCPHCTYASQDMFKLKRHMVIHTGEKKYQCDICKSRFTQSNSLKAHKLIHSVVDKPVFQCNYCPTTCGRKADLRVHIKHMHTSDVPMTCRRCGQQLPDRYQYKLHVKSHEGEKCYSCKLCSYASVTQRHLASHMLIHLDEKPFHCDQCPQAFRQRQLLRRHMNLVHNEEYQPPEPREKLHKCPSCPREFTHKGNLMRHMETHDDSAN
Description: EMSA. (Mobility shift assays separate free from complexed probe on a gel.)

Data set [2] deals with T2, Su(Hw) zinc finger cluster (UniProt P08970 220-619).
T2 sequence: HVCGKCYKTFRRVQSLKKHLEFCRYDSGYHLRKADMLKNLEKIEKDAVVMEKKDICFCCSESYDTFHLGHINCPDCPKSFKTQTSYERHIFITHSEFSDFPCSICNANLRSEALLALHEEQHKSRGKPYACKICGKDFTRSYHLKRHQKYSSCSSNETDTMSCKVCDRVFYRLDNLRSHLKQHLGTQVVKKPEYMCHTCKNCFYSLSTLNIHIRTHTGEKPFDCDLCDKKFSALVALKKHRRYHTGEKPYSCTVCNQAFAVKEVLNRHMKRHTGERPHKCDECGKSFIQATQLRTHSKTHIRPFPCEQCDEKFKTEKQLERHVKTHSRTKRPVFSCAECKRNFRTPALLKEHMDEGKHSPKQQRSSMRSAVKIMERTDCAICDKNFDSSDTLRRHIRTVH
Description: EMSA.

B1: F2177 (dsDNA)
DNA 1: ATGCCTAAAAGTATGCAGAAATTTGTTCAACAAGTCTGCTTATGTGCACCCTCTCGCGATCGGTGGCATAACCAATCGAGGATTCAGCTCTTGAGCTACCTGCCGAAAGGGGCGCGGCGACCTTAAGGGCGACATCTATATCTCGCATAGTGTGCAGAACTGCTTGTTCCTAGTCAC
DNA 2: GTGACTAGGAACAAGCAGTTCTGCACACTATGCGAGATATAGATGTCGCCCTTAAGGTCGCCGCGCCCCTTTCGGCAGGTAGCTCAAGAGCTGAATCCTCGATTGGTTATGCCACCGATCGCGAGAGGGTGCACATAAGCAGACTTGTTGAACAAATTTCTGCATACTTTTAGGCAT
As for B1, the binding result in data set [1] and in data set [2] was “binds” each time.

B2: F2177ΔSu (dsDNA)
DNA 1: GTTCAACAAGTCTGCTTATGTGCACCCTCTCGCGATCGGTGGCATAACCAATCGAGGATTCAGCTCTTGAGCTACCTGCCGAAAGGGGCGCGGCGACCTTAAGGGCGACATCTATATCTCGCATAGTGTGCAGAACTGCTTGTTCCTAGTCAC
DNA 2: GTGACTAGGAACAAGCAGTTCTGCACACTATGCGAGATATAGATGTCGCCCTTAAGGTCGCCGCGCCCCTTTCGGCAGGTAGCTCAAGAGCTGAATCCTCGATTGGTTATGCCACCGATCGCGAGAGGGTGCACATAAGCAGACTTGTTGAAC
On to B2, for which the results for the binding result in data set [1] and in data set [2] were “binds” and “no binding”, respectively.

B3: F2177Δ21 (dsDNA)
DNA 1: ATGCCTAAAAGTATGCAGAAATTTGTTCAACAAGTCTGCTTATGTGCACCCTCTCGCGATCGGTGGCATAACCAATCGAGGATTCAGCTCTTGAGCTACCTGCAAGCTTAAGGGCGACATCTATATCTCGCATAGTGTGCAGAACTGCTTGTTCCTAGTCAC
DNA 2: GTGACTAGGAACAAGCAGTTCTGCACACTATGCGAGATATAGATGTCGCCCTTAAGCTTGCAGGTAGCTCAAGAGCTGAATCCTCGATTGGTTATGCCACCGATCGCGAGAGGGTGCACATAAGCAGACTTGTTGAACAAATTTCTGCATACTTTTAGGCAT
Consider B3, for which, in data set [1], the binding result is “binds”.

B4: F2177ΔC (dsDNA)
DNA 1: ATGCCTAAAAGTATGCAGAAATTTGTTCAACAAGTCTGCTTATGTGCACCCTCTCGCGATCGGTGGCATAACCAATCGAGGATTCAGCTCTTGAGCTACCTGCCGAAAGGGGCGCGGCAACCTTAAGCTTGCATAGTGTGCAGAACTGCTTGTTCCTAGTCAC
DNA 2: GTGACTAGGAACAAGCAGTTCTGCACACTATGCAAGCTTAAGGTTGCCGCGCCCCTTTCGGCAGGTAGCTCAAGAGCTGAATCCTCGATTGGTTATGCCACCGATCGCGAGAGGGTGCACATAAGCAGACTTGTTGAACAAATTTCTGCATACTTTTAGGCAT
In the case of B4, the values for the binding result in data set [1] and in data set [2] were “no binding” and “binds”, respectively.

B5: CTCF×4 (dsDNA)
DNA 1: ACTAGTGCTGCAGCGCCACCTGGCCTTGGAGATCCTGCAGCGCCACCTGGCCTTGGAGATCCTGCAGCGCCACCTGGCCTTGGAGATCTCCAAGGCCAGGTGGCGCTGCAGCCCCGGG
DNA 2: CCCGGGGCTGCAGCGCCACCTGGCCTTGGAGATCTCCAAGGCCAGGTGGCGCTGCAGGATCTCCAAGGCCAGGTGGCGCTGCAGGATCTCCAAGGCCAGGTGGCGCTGCAGCACTAGT
With B5, the binding result in data set [1] is “binds”.
